Paper PMC2679207, “GLS-1, a Novel P Granule Component, Modulates a Network of Conserved RNA Regulators to Influence Germ Cell Fate Decisions” (PLoS Genetics, 2009)

Biological target: T1, GLD-3L with C-terminal His tag, MBP cleaved off (C. elegans, UniProt Q95ZK7-1 1-969)
T1 construct: GLD-3, C. elegans, isoform GLD-3L; also called GLD-3L^6His; source: insect cells, purified on amylose beads, MBP cleaved off by PreScission protease; not shown: MBP, N-terminal, cleaved; His6, C-terminal, kept
T1 sequence (looked up): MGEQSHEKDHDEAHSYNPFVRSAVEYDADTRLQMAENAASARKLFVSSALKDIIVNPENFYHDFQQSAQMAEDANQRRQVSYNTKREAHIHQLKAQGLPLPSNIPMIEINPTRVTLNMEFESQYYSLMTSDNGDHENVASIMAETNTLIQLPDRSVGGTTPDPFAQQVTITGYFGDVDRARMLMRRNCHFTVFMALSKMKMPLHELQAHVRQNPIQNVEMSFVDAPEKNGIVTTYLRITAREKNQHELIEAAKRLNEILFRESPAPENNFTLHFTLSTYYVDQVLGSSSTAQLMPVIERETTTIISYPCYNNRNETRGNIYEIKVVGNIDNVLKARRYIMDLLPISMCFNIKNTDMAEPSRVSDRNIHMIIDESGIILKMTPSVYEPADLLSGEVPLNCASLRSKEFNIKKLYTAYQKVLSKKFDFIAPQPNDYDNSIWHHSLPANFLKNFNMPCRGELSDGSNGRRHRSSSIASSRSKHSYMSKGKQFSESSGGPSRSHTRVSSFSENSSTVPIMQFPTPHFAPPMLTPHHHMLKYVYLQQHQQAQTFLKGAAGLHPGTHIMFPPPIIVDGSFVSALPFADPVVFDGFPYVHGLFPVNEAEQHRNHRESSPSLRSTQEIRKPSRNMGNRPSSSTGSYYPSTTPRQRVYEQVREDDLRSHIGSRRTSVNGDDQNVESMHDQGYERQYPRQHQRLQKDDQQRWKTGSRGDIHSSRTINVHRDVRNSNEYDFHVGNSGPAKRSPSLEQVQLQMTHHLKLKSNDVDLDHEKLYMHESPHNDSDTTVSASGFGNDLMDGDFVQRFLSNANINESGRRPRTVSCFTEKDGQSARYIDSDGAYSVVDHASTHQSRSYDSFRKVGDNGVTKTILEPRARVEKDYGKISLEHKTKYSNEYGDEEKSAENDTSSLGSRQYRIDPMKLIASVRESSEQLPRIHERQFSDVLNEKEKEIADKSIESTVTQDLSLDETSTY
Assay: pull-down; competition assay; MBP-FBF-1 immobilized on amylose beads, loaded with GLD-3L, then challenged with increasing amounts of free GLS-1; washed; GLD-3L on beads quantified from Western blot bands
Details: both partners purified

binding result: binds
B1: MBP-FBF-1 with C-terminal His tag, from insect cells (natural protein, C. elegans, UniProt Q9N5M6 1-614, looked up)
chain: MDQSKMRYTNQFRKTPQKPTSTEVGNHHTPAHSPMAQHETSMWNFNSLNPYFSMLNMNDGMNYARHQQNHIVTSRPPTPLTDLMSLRSFQSFPNVFMPVSRSRTSSFIQSDTDSSRLEPDDFSQNVRYCSTEIDRNNSSSKNDHLKYSRPALSRNSRSFTRSNNVLPTWSLDSNGEMRSRLSLSEVLDSGDLMKFAVDKTGCQFLEKAVKGSLTSYQKFQLFEQVIGRKDDFLKLSTNIFGNYFVQEIIGMSLTTYDDDNIKRQEKLKNFISSQMTDMCLDKFACRVIQSSLQNMDLSLACKLVQALPRDARLIAICVDQNANHVIQKVVAVIPLKNWEFIVDFVATPEHLRQICFDKYGCRVVQTIIEKLTADSINVDLTSAAQHLRERALQRLMTSVTNRCQELATNEYANYIIQHIVSNDDLAVYRECIIEKCLMRNLLSLSQEKFASHVVEKAFLHAPMELLAEMMDEIFDGYMPHPGTGKDALDIMMFHQFGNYVVQCMLTICCDAVSGRRQTKEGSYDHANSFQVWLKKLHSRVTKERHRLSRFSSGKKMIETLAHLRSTHPIYGLQSSGHESFKTDCFSTASEHDGLELEKNGIEEGNLRLMRTFSP
notes: FBF-1, PUF protein, C. elegans; also called MBP-FBF-1^6His; source: insect cells, purified on amylose beads; not shown: His6, C-terminal, kept
